Patent US20260125455A1 (CLEVELAND CLINIC FOUNDATION, published 2026)
Each block holds one binder with its values, some of them ahead of it.

Assays:
[1] = target: T1, human complement protein C6 (human, UniProt P13671 22-934); experiment: C6-binding ELISA, A650 nm; sample 'mouse serum' (28 days at 37 C)
T1 construct: also called human C6; C6 antigen
Procedure: (§1) For the serum stability assessment, samples of the purified candidate antibodies are normally incubated in mouse, human and cynomolgus serum at 37 C for 28 days and then tested in an antigen-binding ELISA. Since the anti-C6 antibodies are expected to bind to both human and cynomolgus C6 but not mouse C6, we anticipated that incubating in human or cynomolgus sera would reduce ELISA binding due to occupation of the antibody binding sites by C6 protein from the sera. Therefore, the chimeric and humanized antibodies were tested with human and mouse sera and with human sera from which the C6 protein has been depleted. The C6-binding ELISA was then used to compare the binding abilities of the C601 antibodies that had been incubated in the 3 different sera to antibody samples that were incubated in PBS at 37 C or kept at 4 C (non-incubated).
(§2) The Uncle instrument (Unchained Labs) was used to monitor unfolding via intrinsic fluorescence and aggregation by static light scattering across a temperature gradient to obtain melting temperatures (Tₘ). […] Isoelectric points were determined by capillary isoelectric focusing using a PA800+ (Beckman Coulter). […]

[2] = target: T1, human complement protein C6; experiment: SPR (Biacore 8K), IgG on protein G chip, C6 0.31-20 nM 2-fold series, 1:1 fit
Procedure: (§3) The kinetics of C6 binding was compared for the purified chimeric and lead humanized C601 using surface plasmon resonance (SPR, Biacore 8K). IgG were captured on a protein G sensor chip and binding of C6 measured using a three-fold concentration series of C6 from 0.03 nM-25 nM (FIG. 5). In a second experiment, a two-fold concentration series from 0.31 nM-20 nM C6 was used (FIG. 6). For all antibodies, binding of C6 occurred in a concentration-dependent manner and data could be fitted using a 1:1 model to calculate the association rate (kₒₙ), dissociation rates (kd) and affinity constant (KD). The kinetic data are shown in Table 5, which indicates only small differences between the parameters determined from the two independent experiments.

[3] = target: T1, human complement protein C6; experiment: ELISA, C6-coated wells
[4] = target: T1, human complement protein C6; experiment: SPR (Biacore 8K)
Procedure: as §3
Binding ELISAs used Nunc Maxisorp 384-well plates, wells coated with C6, C5b,6 complex or C5 (Complement Technology Inc, TX) and goat anti-human IgG (Fab specific) peroxidase secondary antibodies (Sigma-Aldrich, A0293) for detection. For the thermal stability assay, IgG supernatants were diluted to their EC₈₀ concentration, incubated at different temperatures for 10 min and C6 binding measured by ELISA with the binding signal plotted against temperature. […] Binding of C6 measured using a three-fold concentration series of C6 from 0.03 nM-25 nM and data were fitted using a 1:1 model in two independent experiments.

[5] = target: T1, human complement protein C6; experiment: SPR (Biacore 8K); remark: listed apart in the source
Procedure: as §3
(§4) Binding ELISAs used Nunc Maxisorp 384-well plates, wells coated with C6, C5b,6 complex or C5 (Complement Technology Inc, TX) and goat anti-human IgG (Fab specific) peroxidase secondary antibodies (Sigma-Aldrich, A0293) for detection. For the thermal stability assay, IgG supernatants were diluted to their EC₈₀ concentration, incubated at different temperatures for 10 min and C6 binding measured by ELISA with the binding signal plotted against temperature. Kinetics of C6 binding were measured by capturing antibodies from supernatant samples using Protein G biosensors and performing a 20 min association step with 2.5 nM C6 and a 20 min dissociation step using the Octet RED96. Precise kinetic measurements were obtained by surface plasmon resonance (Biacore 8K, Cytiva). The IgG were captured on a protein G sensor chip. Binding of C6 measured using a three-fold concentration series of C6 from 0.03 nM-25 nM and data were fitted using a 1:1 model in two independent experiments.

[6] = target: T1, human complement protein C6; experiment: SPR (Biacore 8K), IgG on protein G chip, C6 0.03-25 nM 3-fold series, 1:1 fit
Procedure: as §3, §4

[7] = target: T1, human complement protein C6; experiment: BLI (Octet), antibody on Protein G biosensors, 1:1 fit, experiment 2
[8] = target: T1, human complement protein C6; experiment: C6-binding ELISA, A650 nm; sample 'PBS' (28 days at 37 C)
Procedure: as §1, §2

[9] = target: T1, human complement protein C6; experiment: C6-binding ELISA, A650 nm; sample 'C6-depleted human serum' (28 days at 37 C)
Procedure: as §1, with “The C6-binding ELISA was then used to compare the binding abilities of the C601 antibodies that had been incubated in the 3 different sera to antibody samples that were incubated in PBS at 37 C or kept at 4 C (non-incubated).” left out
as §4, with “Precise kinetic measurements were obtained by surface plasmon resonance (Biacore 8K, Cytiva). The IgG were captured on a protein G sensor chip. Binding of C6 measured using a three-fold concentration series of C6 from 0.03 nM-25 nM and data were fitted using a 1:1 model in two independent experiments.” left out

[10] = target: T1, human complement protein C6; experiment: ELISA, expression supernatant, anti-human kappa detection
Procedure: The chimeric molecules, MoC601 HuG4K and MoC601 HuG1KFab, were tested for C6 binding in the form of expression supernatants. In this experiment, the human molecules were detected with an HRP-conjugated goat anti-human kappa chain reagent, which gave relative low signals. However, the binding of both chimeric molecules to C6 was confirmed. The EC₅₀ value for MoC601 HuG4K (0.43 nM) was higher than that of the mouse antibody (0.07 nM), though this was lower than in previous experiments. A further experiment was performed to find a more suitable anti-human antibody detection reagent. MoC601 HuG4K from expression supernatant was detected with three different secondary antibodies. Both anti-human IgG Fc-specific and Fab-specific detection gave higher signals than the anti-kappa chain reagent but the Fc-specific detection yielded a very low EC₅₀ (0.03 nM).

T1 sequence (P13671 22-934 limits assumed): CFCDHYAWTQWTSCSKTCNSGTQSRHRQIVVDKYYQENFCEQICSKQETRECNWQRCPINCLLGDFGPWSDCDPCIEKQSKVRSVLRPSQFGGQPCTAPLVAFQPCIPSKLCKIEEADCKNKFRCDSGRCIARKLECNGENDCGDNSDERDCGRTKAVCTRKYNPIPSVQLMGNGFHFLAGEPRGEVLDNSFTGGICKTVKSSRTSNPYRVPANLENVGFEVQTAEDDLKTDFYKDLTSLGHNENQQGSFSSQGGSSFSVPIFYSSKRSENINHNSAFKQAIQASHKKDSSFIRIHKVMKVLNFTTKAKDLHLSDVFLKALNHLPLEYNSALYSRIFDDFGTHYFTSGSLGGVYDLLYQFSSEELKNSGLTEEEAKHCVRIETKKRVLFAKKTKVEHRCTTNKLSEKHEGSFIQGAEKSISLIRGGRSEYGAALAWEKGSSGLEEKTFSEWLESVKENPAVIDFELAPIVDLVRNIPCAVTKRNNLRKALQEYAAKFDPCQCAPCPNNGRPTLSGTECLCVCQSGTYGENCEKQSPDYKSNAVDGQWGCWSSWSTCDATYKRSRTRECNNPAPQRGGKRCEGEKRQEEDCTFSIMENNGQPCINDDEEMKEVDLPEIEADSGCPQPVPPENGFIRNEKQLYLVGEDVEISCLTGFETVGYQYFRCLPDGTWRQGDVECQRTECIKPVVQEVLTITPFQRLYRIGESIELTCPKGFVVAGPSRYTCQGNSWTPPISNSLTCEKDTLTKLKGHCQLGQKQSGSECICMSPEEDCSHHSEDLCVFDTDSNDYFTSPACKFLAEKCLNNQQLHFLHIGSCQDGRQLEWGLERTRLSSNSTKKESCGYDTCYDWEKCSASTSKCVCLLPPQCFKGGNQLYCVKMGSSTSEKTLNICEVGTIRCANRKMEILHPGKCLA

EC50 [1]: 0.15 nM
Kd [2]: 0.226 nM
koff [2]: 0.000306 s⁻¹
kon [2]: 1.36e+06 M⁻¹ s⁻¹
EC50 [3]: 0.19 nM
Kd [4]: 0.343 nM
Kd [5]: 0.343 nM
Kd [6]: 0.343 nM
koff [6]: 0.000389 s⁻¹
kon [6]: 1.13e+06 M⁻¹ s⁻¹
B1: C601HFKC4 HuG4K (antibody, human IgG4 S228P, kappa)
heavy: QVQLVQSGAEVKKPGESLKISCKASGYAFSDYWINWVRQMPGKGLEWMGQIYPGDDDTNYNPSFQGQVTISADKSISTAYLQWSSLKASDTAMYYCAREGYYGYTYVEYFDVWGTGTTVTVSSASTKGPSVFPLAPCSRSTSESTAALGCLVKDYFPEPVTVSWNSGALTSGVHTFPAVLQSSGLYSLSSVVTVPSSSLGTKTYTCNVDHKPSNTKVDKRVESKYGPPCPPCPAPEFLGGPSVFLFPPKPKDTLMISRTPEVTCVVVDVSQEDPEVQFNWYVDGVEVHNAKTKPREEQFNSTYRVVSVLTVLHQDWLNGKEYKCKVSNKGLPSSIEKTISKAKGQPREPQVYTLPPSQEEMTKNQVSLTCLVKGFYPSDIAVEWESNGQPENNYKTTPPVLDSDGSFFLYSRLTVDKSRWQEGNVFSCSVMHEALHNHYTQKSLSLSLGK
light: QIVLTQSPATLSLSPGERATLSCRASSSVSYLHWYQQKPGQSPRLWIYDTSKRATGIPARFSGSGSGTDYTLTISSLEPEDFAVYYCQQWTSNPLTFGQGTKLEIKRTVAAPSVFIFPPSDEQLKSGTASVVCLLNNFYPREAKVQWKVDNALQSGNSQESVTEQDSKDSTYSLSSTLTLSKADYEKHKVYACEVTHQGLSSPVTKSFNRGEC
notes: also called 3713; clone 3713

Kd [2]: 0.459 nM
koff [2]: 0.000413 s⁻¹
kon [2]: 900000 M⁻¹ s⁻¹
EC50 [3]: 0.2 nM
Kd [4]: 0.527 nM
Kd [5]: 0.527 nM
Kd [7]: 0.35 nM
koff [7]: 0.00024 s⁻¹
kon [7]: 690000 M⁻¹ s⁻¹
EC50 [8]: 0.19 nM
Kd [6]: 0.527 nM
koff [6]: 0.000448 s⁻¹
kon [6]: 850000 M⁻¹ s⁻¹
EC50 [9]: 0.15 nM
EC50 [10]: 0.43 nM
B2: MoC601 HuG4K (chimeric C601 antibody) (antibody, human IgG4 S228P, kappa, V domains shown)
VH: QVQLQQSGAELVKPGASVKISCKASGYAFSDYWMNWVKQRPGKGLEWIGQIYPGDDDTNYNGKFKGKATLTADKSSSTAYMQLSSLTSEDSAVYFCAREGYYGYTYVEYFDVWGTGTTVTVSS
VL: QIVLTQSPAIMSVSPGEKVTLTCSASSSVSYMHWYQQKSGTSPKRWIYDTSKLASGVPARFSGSGSGTSYSLTISSMEAEDAATYYCQQWTSNPLTFGAGTKLELRR
notes: also called chimeric antibody; chimeric 1C9
